For four molecules, stoichiometry N and Kd results are on record in publication PMC1557824.

For orientation: stoichiometry N means a count of units in the complex or per binding partner. By Kd is commonly meant the equilibrium constant for the complex coming apart.

In data set [1] the target is recombinant Pichia pastoris zeta crystallin (PpZTA1) (Pichia pastoris). In words: SEC. (Size exclusion chromatography separates by hydrodynamic size, large species first.)
Data set [2] addresses T1, PpZTA1 (zeta crystallin / quinone oxidoreductase), recombinant (Pichia pastoris, UniProt F2QTB9 1-336).
T1 sequence: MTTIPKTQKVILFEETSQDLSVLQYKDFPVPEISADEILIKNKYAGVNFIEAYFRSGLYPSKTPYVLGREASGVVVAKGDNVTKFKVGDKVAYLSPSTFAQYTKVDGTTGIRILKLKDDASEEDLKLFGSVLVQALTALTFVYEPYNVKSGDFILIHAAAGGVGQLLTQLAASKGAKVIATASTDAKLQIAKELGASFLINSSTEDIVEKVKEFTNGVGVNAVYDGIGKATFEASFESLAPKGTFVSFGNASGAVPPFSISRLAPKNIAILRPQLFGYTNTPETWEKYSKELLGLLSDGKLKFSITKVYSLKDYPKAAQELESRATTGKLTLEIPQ
In words: EMSA. (In general: Mobility shift assays separate free from complexed probe on a gel.)

Regarding “recombinant Pichia pastoris zeta crystallin (PpZTA1) (natural protein)”, the stoichiometry N in data set [1] is 2.

B1: 174 (ssDNA)
DNA: ACTTGACAGCAATATATAAACAGAAGGAAGCTGCCCTGTCTTAAACCTTTTTTTTTATCA
For B1, the Kd in data set [2] stood at 100 pM.

B2: 229 (ssDNA)
DNA: GAATACTGCTGATAGCCTAACGTTCATGATCAAAATTTAACTGTTCTAACCCCT
B2: the Kd in data set [2] amounted to 200 pM.

B3: 288 (ssDNA)
DNA: ACCCGCTTTTTGGATGATTATGCATTGTCTCCACATTGTATGCTTCCAAGATTCTGGTGG
For B3, the Kd in data set [2] amounted to 900 pM.
